Article PMC4646009
Read-outs that look alike come from different tables or passages of the source.

Tests used:
[1] = target: Streptococcus thermophilus QueG (epoxyqueuosine reductase) (Streptococcus thermophilus); experiment: native MS; nano-ESI, Waters Synapt G2, protein at 3-30 uM in anaerobic 100 mM ammonium acetate pH 6.8; monomer to dimer
[2] = target: Streptococcus thermophilus QueG (epoxyqueuosine reductase) (Streptococcus thermophilus); experiment: as above; remark: listed apart in the source

Which results are given for “Streptococcus thermophilus QueG (epoxyqueuosine reductase) (enzyme)”?
proportion of dimer [1]: 5%; stoichiometry N [1]: 2; proportion of dimer [2]: < 5%
